Data from patent publication US20060018918A1.

Tests used:
Assay in all cases: ELISA on plates coated with the antigen; control serum
native α-lactalbumin = molecular target: native α-lactalbumin
[1] = molecular target: α-lactalbumin stabilized denatured isomer "a"
[2] = molecular target: α-lactalbumin stabilized denatured isomer "c"
[3] = molecular target: α-lactalbumin stabilized denatured isomer "d"

normal mouse serum (control) (polyclonal serum or antibody)
O.D. (native α-lactalbumin): 0.06 O.D.
O.D. [1]: 0.06 O.D.
O.D. [2]: 0.056 O.D.
O.D. [3]: 0.05 O.D.
